Measurements published in paper PMC5727262 (Scientific Reports, 2017).

Target: T1, Ubc9 (wild type) (UniProt P63279 1-158)
T1 construct: Ubc9, the single SUMO conjugating enzyme (E2); the crystal structure PDB 2GRN chain a served as its model; Uniformly 15N-labelled for NMR; also called WT Ubc9; Ubc9WT; source: recombinant, purified (Ni-NTA chromatography, gel filtration)
Assay: ITC; 2 μl additions of peptide to 200 μl of WT Ubc9 or Ac-Ubc9K65; 25 °C; pH 8.0, 20 mM potassium phosphate, 100 mM NaCl; iTC200; fitted assuming 1:1 binding stoichiometry
Conditions: both partners purified

T1 sequence (P63279 whole entry): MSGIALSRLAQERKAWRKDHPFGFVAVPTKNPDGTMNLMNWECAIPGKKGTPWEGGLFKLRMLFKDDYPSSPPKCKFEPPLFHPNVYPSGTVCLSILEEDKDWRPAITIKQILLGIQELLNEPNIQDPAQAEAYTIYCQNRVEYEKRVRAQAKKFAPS

B1: CBP NDSM peptide (peptide)
chain: VKVEVKEEEESSSN
modifications: Synthetic peptide; true ends and caps are only in Figure 1A. Limits used here are the Psi-K-x-E core through x10 (x1-x10 = VKEEEESSSN, Supplementary Table 1), around sumoylation site K1056
B1 gave a Kd of 57 µM.
